Source: patent publication US20230250157A1 (CALIFORNIA INSTITUTE OF TECHNOLOGY, published 2023)

What was measured:
SARS-CoV-2 WA1 RBD [1] = molecular target: T1, SARS-CoV-2 WA1 RBD (SARS-CoV-2 WA1, UniProt P0DTC2 319-539); assay: X-ray crystallography of SEC-purified Fab-RBD complex (PDB 7UZD)
T1 construct: range 319-539

SARS-CoV RBD [2] = molecular target: T2, SARS-CoV RBD (SARS-CoV, UniProt P59594 318-510); assay: ELISA, coated RBD, purified IgG
SARS-CoV-2 WA1 RBD [3] = molecular target: T1, SARS-CoV-2 WA1 RBD; assay: Beacon optofluidic screen: IgG secreted by single B cell, RBD on beads
SARS-CoV-2 WA1 RBD [4] = molecular target: T1, SARS-CoV-2 WA1 RBD; assay: X-ray crystallography of SEC-purified Fab-RBD complex (PDB 7UZC)
SARS-CoV RBD [5] = molecular target: T2, SARS-CoV RBD; assay: Beacon optofluidic screen: IgG secreted by single B cell, RBD on beads
SARS-CoV-2 WA1 RBD [6] = molecular target: T1, SARS-CoV-2 WA1 RBD; assay: ELISA, purified IgG
SARS-CoV-2 WA1 RBD [7] = molecular target: T1, SARS-CoV-2 WA1 RBD; assay: X-ray crystallography of SEC-purified Fab-RBD complex

B1: HSW-2 Fab (Fab, V domains shown)
VH: QVQLQQSGPELVKPGASVKISCKASGYVFSTSWMSWVKQRPGEGPEWIGRIYPRDGHSSSTGKFKDKATLTADKSSNTAYIHLSSLTSEDSAVYFCARDYGYYYFDYWGQGTTLTVSS
VL: DIQMTQSPASLSASVGEAVTITCRLSENVYSFLAWYQQKQGKSPQLLVYRAKTLAEGVPSRFSGSGSGTQFSLKINSLQPEDFGTYYCQHHYGTPPTFGGGTKLEIK
B1: binds (SARS-CoV-2 WA1 RBD [1]).

B2: HSW-2 (antibody, V domains shown)
VH: B1 VH
VL: B1 VL
B2: no binding (tested: up to 100 µg/mL IgG) (SARS-CoV RBD [2]); binds (SARS-CoV-2 WA1 RBD [3]).

B3: M8a-34 Fab (Fab, V domains shown)
VH: QVQLQQPGAELVKPGASVKMSCKASGYTFITYWITWVKQRPGQGLEWIGDIYPGGGRTNYNEKFKSKATLTVDTSSSTAYMQLRSLTSEDSAVYYCARYDGNYVGYYYAMDYWGQGTSVTVSS
VL: DIVLTQSPVSLAVSLGQRATISCRASESVDFYGNSFIYWYQQKPGQAPKLLIYRASNLESGIPARFSGSGSRTDFTLTIHPVEADDVATYYCQQSIEDPRTFGGGTKLEIK
B3: binds (SARS-CoV-2 WA1 RBD [4]).

B4: M8a-34 (antibody, V domains shown)
VH: B3 VH
VL: B3 VL
B4: binds (SARS-CoV-2 WA1 RBD [3]); binds (SARS-CoV RBD [5]).

B5: HSW-1 (antibody, V domains shown)
VH: QVQLQQPGAELVKPGTSMKLSCKASGYTFTSYWMHWVKQRPGQGLEWIGMIHPNSGSTKYNENFKSKATLTVDKSSSTAYMQFSSLTSEDSAVYYCVRSGSYYGTTYDYFDYWGQGTTLTVSS
VL: DIVLTQSPASLAVSLGQRATISCRASESVNIYGNSFMHWYQQKPGQPPKLLIFRASNLESGIPVRFSGSGSRTDFTLTINPVEADDVATYYCHQSNEDPFTFGSGTKLEIK
B5: no binding (tested: up to 100 µg/mL IgG) (SARS-CoV RBD [2]); binds (SARS-CoV-2 WA1 RBD [3]).

B6: M8a-3 (antibody, V domains shown)
VH: QVQLQQPGAELVLPGASVKLSCKASGYTFTNYWMHWVKQRPGHGLEWIGEIDPFDTYIKINQKFKGKSTLTVDTSSSTAYMQLSSLTSEDSAVYYCARPDSSGYPVYFDYWGQGTTLTVSS
VL: DIVMTQSHKFMSTSVGDRVSITCKASQDVGTYIAWYQQKPGQSPKLLIYWASTRHTGVPDRFTGSGSGTNYTLTISSVQAEDLALYHCQQHYSTPYTFGGGTKLEIK
B6: binds (SARS-CoV RBD [5]).

B7: M8a-31 (antibody, V domains shown)
VH: EVQLKQSVAELVRPGASVKVSCTASGFNIKNIYMHWVKQRPEQGLDWIGRIDPANGNSRYAPKFQDKATITADTSSNTAYLQLSSLTSEDTAIYYCADEGWGFANWGQGTLVTVSA
VL: DIVMTQSPSSLTVTAGEKVTMSCKSSQSLLNSGNQKNYLTWYQQKVGQPPKLLIYWASTRDPGVPDRFTGSGFGTDFTLTISSVQAEDLAVYYCQNDYSYPLTFGAGTKVELK
B7: binds (SARS-CoV-2 WA1 RBD [6]); binds (SARS-CoV RBD [5]).

B8: M8a-28 (antibody, V domains shown)
VH: QVQLQQPGAELVKPGASVKMSCKASGYNFNHYWISWVKQRPGQGLEWIGDIYPLSHFTTYNEKFTNRATLTVDTSSTTAYMQLNSLTSDDSAVFYCARWDYFDSRTFDYWGQGTTLTVSS
VL: DILLTQFPAILSVSPGERVSFSCRASQTIGTNIHWYQQRINGSPRLLIKYASESISGIPSRFSGSGSGTDFSLSINNVESEDIADYYCQQINSWPLTFGAGTKLDLK
B8: binds (SARS-CoV RBD [5]).

B9: M8a-7 (antibody, V domains shown)
VH: QAYLQQSGAEMVRPGASVKMSCKASGYTFNNYNMHWVKQTPSQGLEWIGGFYPGNDDTAYSQKFKGKATLTVDKSSSTAFMHLSSLTSEDSAVYFCARSLGRYYAMDYWGQGTSVTVSS
VL: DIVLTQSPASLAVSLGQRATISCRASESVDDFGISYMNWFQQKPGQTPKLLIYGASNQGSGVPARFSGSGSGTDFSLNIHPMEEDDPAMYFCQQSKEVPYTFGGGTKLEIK
B9: binds (SARS-CoV RBD [5]).

B10: M8a-6 (antibody, V domains shown)
VH: QVQLQQPGTELVMPGASVKLSCKTSGYTFTHYWMHWVKQRPGEGLEWIGEIAPSDNYVKYNQKFKGKSTLSVDRSSSTAYMQLSSLTSEDSAVYFCARPDNSGYPVYFDYWGQGTSLTVSS
VL: DIVMTQSQKFMSTSLGDRVSISCKASQDVGTTVAWYQQKPGQSPKLLIYWASTRHTGVPDRFTGTGSGTDYTLTISSVAAEDLALYYCQQHYNTPYTFGGGTKLEIE
B10: binds (SARS-CoV-2 WA1 RBD [3]).

B11: M8a-6 Fab (Fab, V domains shown)
VH: B10 VH
VL: B10 VL
B11: binds (SARS-CoV-2 WA1 RBD [7]).

B12: M8a-25 (antibody, V domains shown)
VH: EVQLQQSVAELVRPGASVKLSCTASGFNIKNTYMHWVKQRPEQGLEWIGRIDPSIDHTRYAPKFQGKAVITAFTSSNTAYLQLSSLTSEDTAIYYCAREGGGNYPYYYAIDYWGQGTSVTVSS
VL: DIQMTQSSSSFSVSLGDRVTITCKASEDIYIRLAWYQQRPGNAPRLLISNAISLETGVPSRFSGSGFGKDHTLSITSLQTEDVATYYCQQYWSTPWTFGGGTKLEIK
B12: binds (SARS-CoV RBD [5]).
